Laboratory results: patent publication US10654918B2, “Inflammatory disease diagnosis and methods of treatment using down-regulators of lipopolysaccharide-responsive beige-like anchor” (University of South Florida, priority 2013, dated 2020)

What was measured:
Type in all cases: cell-based, human
[1] = tested on: LRBA; assay: Knockdown of LRBA in Raji B cell lines stably transfected with LRBA shRNA; details: three Raji B cell lines stably transfected
Experimental: Three Raji B cell lines stablely transfected with LRBA shRNA that knockdown LRBA over 90% were generated, along with […] mouse cell lines stably transfected with a LRBA DNM.
LRBA was tested for its effect on cell growth. For the “loss of function” strategy, EBV immotalized LRBA-deficient B cell lines were generated from LRBA deficient patients, and dominant negative LRBA mutants (DNM) and knockout mouse models. The LRBA sequence targeted by the shRNA used was SEQ ID No. 15;

[2] = tested on: NF-κB; assay: NF-κB luciferase reporter and phospho-NFκB flow cytometry in Raji cells with LRBA knockdown
Description: FIG. 45A-D. Knockdown of LRBA deregulates NFκB. (A) Knockdown of LRBA increases NFκB luciferase activity. An NFκB luciferase reporter was used to measure the NFκB transcription activity. The data are shown as scatter with bar graph of mean with standard error of mean (SEM). (B) Knockdown of LRBA increases phospho-NFκB. The Phosflow kit including Cytofix Fixation Buffer, Phosflow Perm Buffer III and Stain Buffer (BD) and phospho-antibodies, NFκB p65 (pS529) PE-Cy7 were used for the intracellular staining following the company's instruction. For each samples, 50,000 cells were recorded for the FACS assay. (C) A549 cells were stably transfected with LRBA shRNA knockdown plasmid and several clones were picked up. […]
FIGS. 46(A) and (B). […] NFκB luciferase activity was measured at each time point for both cell lines as in A. RLU: Relative Light Units. […]
NF-κB is the central regulator of the immune system and plays a pivotal role in inflammation and immune responses. […] Raji cells were stimulated with LPS for different times from zero to several hours, and the NF-κB activity was measured by NF-κB luciferase reporter. […]
Ready-To-Glow™ NF-κB Secreted Luciferase Reporter System (Clontech) and Firefly Luciferase Assay Kit (Biotium, Calif., USA) were used following the manufacture's instruction.

[3] = tested on: Raji B cells; assay: Viable cell count of Raji B cells and Rajisi9 B cells; details: 10 cells per well, 11 days
Experimental: FIG. 20 is a graph showing knockdown of LRBA promotes B cell proliferations. Raji B cells and Rajisi9 B cells (Raji B cells stably transfected with shRNA plasmid against LRBA) were culture on a 96 well plate with 10 cells per well for 11 days. Viable cells were counted by the Trypan blue live/dead discrimination method with a Hemocytometer.
Raji B cells and Rajisi9 B cells (Raji B cells stably transfected with shRNA plasmid against LRBA) were cultured in a 96 well plate with 10 cells per well for 9 days. Blockage of LRBA promotes THP1 cell proliferation. THP1 cells (human acute monocytic leukemia cell line) were cultured in 100 μl of RPMI1640 media with or without human LRBA polyclonal IgG antibody at 0.67 μg/ml or the same amount of human actin polyclonal IgG antibody on a 96 well plate with 10 cells per well for 9 days. Viable cells were counted by the trypan blue live/dead discrimination method with a hemocytometer.

[4] = tested on: Raji and Raji9 cells; assay: Annexin V apoptosis assay after infection with adenoviruses or Gram-negative bacteria; details: 24 hrs after infection with adenoviruses or Gram-negative bacteria
Experimental: FIGS. 49(A) through (B) are graphs showing cells with LRBA knockdown cannot fight viral and bacterial infections efficiently. Half million of Raji and Raji9 cells were infected with adenoviruses at 100 multiplicity of infection (MOI) or 50 μl of Gram-negative bacteria from overnight culture. After 24 hours of incubation at 37° C., Apoptosis was detected by Annexin V-PE and 7-AAD. Cells that were double negative (left lower quadrant) were viable, Annexin only positive cells (right lower quadrant) were early phase of apoptosis or other cell death, and double positive cells (right upper quadrant) were end stage apoptosis or dead. ****p<9E-05, *p<0.007.
In order for pathogens to efficiently spread to neighboring cells and evade the immune cells, and/or gain nutrients, one prominent strategy of many bacterial pathogens is to cause host cell death (31). On another hand, the host cell, first will try to kill the evaded pathogens. As such, cell death may be used as a hallmark of immunodeficiency. […] It is hypothesized that Raji cells with LRBA knockdown can serve as an immunodeficiency in vitro model, i.e. they cannot fight pathogens efficiently when compared to wild type cells, manifested as more cell death.

B1: LRBA shRNA: shRNA plasmid against LRBA; targeted LRBA sequence SEQ ID No. 15 GGGATATTGTAGAAACTGTCTTT (nucleic acid)
sense: GGGATATTGTAGAAACTGTCTTTTTCAAGAGAAAAGACAGTTTCTACAATATCCCTTTTTT
antisense: CCCTATAACATCTTTGACAGAAAAAGTTCTCTTTTCTGTCAAAGATGTTATAGGGAAAAAA
[1]
  knockdown of LRBA: over 90%
[2]; Raji cells
  phospho-NFκB (pS529), flow cytometry: increases
[2]; Raji cells stimulated with LPS, zero to several hours
  average levels of the NF-κB activity (luciferase reporter): higher
[3]
  B cell proliferations (viable cells, Trypan blue): promotes
[4]
  dead cells or apoptotic cells (Annexin V-PE, 7-AAD): more dead cells or apoptotic cells
